B3: Abet0007 IgG2 (antibody, V domains shown)
VH: EVQLLESGGGLVQPGGSLRLSCAASGFTFSVYTMWWVRQAPGKGLEWVSVIGSSGGTTVYADSVKGRFTISRDNSKNTLYLQMNSLRAEDTAVYYCAREGQQLVRPYYYYGMDVWGQGTLVTVSS
VL: QSVLTQPPSVSVSPGQTASITCSGHNLEDKFASWYQQKSGQSPVLVIYRDDKRPSGIPERFSASNSGHTATLTISGTQATDEADYYCQAQDSTTRVFGGGTKLTVL
notes: whole human IgG2 with human lambda light chain
B5: Abet0380-GL IgG1-TM (antibody, V domains shown)
VH: EVQLLESGGGLVQPGGSLRLSCAASMGNFNYQTMWWVRQAPGKGLEWVSVIGKTNENIAYADSVKGRFTISRDNSKNTLYLQMNSLRAEDTAVYYCAREWMDHSRPYYYYGMDVWGQGTLVTVSS
VL: SYELTQPPSVSVSPGQTASITCSGHNLEDKFASWYQQKPGQSPVLVIYRDDKRPSGIPERFSASNSGHTATLTISGTQAMDEADYYCSSQDTVTRVFGGGTKLTVL
notes: human IgG1 with the triple mutation L234F/L235E/P331S (TM), human lambda light chain; also called Abet0380-GL (germlined) IgG1-TM
B6: Human Amyloid Beta 17-42 truncated peptide (peptide)
peptide: LVFFAEDVGSNKGAIIGLMVGGVVIA
notes: synthetic, unlabelled; also called Abeta 17-42

Key:
[1] = target: T1, Biotinylated Human Amyloid Beta 1-42 peptide (human, N-terminal biotin); assay: HTRF epitope competition, purified scFv; competitor Abet0042 IgG
T1 construct: synthetic (rPeptide A1117 or Bachem H-5642); also called N-terminal biotin Abeta 1-42; synthetic biotinylated human Amyloid beta 1-42 peptide
Description: The scFv with unique protein sequences were expressed in E. coli and purified by affinity chromatography followed by buffer exchange. […] The time resolved fluorescence was read after two hours incubation at room temperature.
Purified scFv were serially diluted in assay buffer containing 50 mM MOPS buffer pH 7.4 (Sigma, UK; cat: M9381), 0.4 M potassium fluoride (BDH Chemicals, USA; cat: 103444T), 0.1% fatty acid free bovine serum albumin (Sigma, UK; cat: A6003) and 0.1% Tween 20 (Sigma, UK; cat: P2287) using a Greiner 96 well U bottom plate (Greiner BioOne, Germany; cat: 650201). 5 μl of each dilution of scFv was transferred in duplicate to the assay plate (Costar® 384 well black shallow well, Corning Life Sciences; cat: 3676) using a MiniTrak™ (PerkinElmer, USA) liquid handling robot. […] The assay plates were sealed and incubated at room temperature for 1 hour. Streptavidin cryptate and anti-human Fc IgG XL665 were combined at 7 nM and 20 nM respectively in assay buffer and 5 μl of this solution were added to the assay plate.

[2] = target: T1, Biotinylated Human Amyloid Beta 1-42 …; assay: SPR (BIAcore T-100), scFv over biotinylated peptide on SA chip, 1:1 Langmuir fit
Description: The chip surface was regenerated between cycles by a single 20 second injection of 10 mM Glycine pH 2.0 to remove scFv bound to the peptide.
A series of dilutions of each purified scFv (12.5-400 nM) were sequentially passed over the peptide surface for a sufficient amount of time to observe sensorgrams that could be fitted to an appropriate binding model with confidence. A zero-concentration buffer blank was subtracted from the main dataset to reduce the impact of any buffer artefacts or non-specific binding effects. An appropriate binding model was then fitted simultaneously to the data from each analyte titration using the BIAevaluation software.

[3] = target: T1, Biotinylated Human Amyloid Beta 1-42 …; assay: SPR (ProteOn), scFv over immobilised biotinylated peptide
Description: These experiments were performed essentially as described by Karlsson et al. (Karlsson et al., 1991). For further details see section 1.7.
The chip surface was regenerated between cycles by a single 60 second injection of 10 mM Glycine pH 2.0 to remove scFv bound to the peptide.
Each scFv at 100-200 nM was sequentially passed over the peptide surface for a sufficient amount of time to observe sensorgrams that could be fitted to an appropriate binding model with confidence. An irrelevant scFv blank was subtracted from the main dataset to reduce the impact of any buffer artefacts or non-specific binding effects. An appropriate binding model was then fitted to the data.

[4] = target: T1, Biotinylated Human Amyloid Beta 1-42 …; assay: HTRF epitope competition; competitor Abet0144-GL IgG1-TM
[5] = target: T2, Human Amyloid Beta 1-40 peptide (human); assay: HTRF peptide competition: dilution series of unlabelled peptide against 5 nM biotinylated human Amyloid beta 1-42 peptide for 0.3 nM Abet0007 IgG2 (section 1.6)
T2 construct: synthetic, unlabelled; also called unlabelled human Amyloid beta 1-40
T2 sequence (peptide, as listed by the source): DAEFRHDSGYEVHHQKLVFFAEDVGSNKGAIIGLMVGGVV
Description: (§1) As described above, the purified sFab fragments that bound specifically to the Amyloid beta 1-42 peptide were converted to recombinant IgG. To test the specificity of these IgGs for binding to other human Amyloid beta peptides, a competition assay was developed. […] The competition of each peptide was assessed by detecting the loss of binding of the lead IgG to the biotinylated 1-42 peptide by measuring the fluorescence resonance energy transfer (FRET) between the IgG and biotinylated 1-42 Amyloid beta using streptavidin cryptate (CisBio International, France; cat: 610SAKLB) and anti-human Fc IgG XL665 (CisBio International, France; cat: 61HFCXLB) detection reagents.
(§2) Streptavidin cryptate and anti-human Fc IgG XL665 were combined at 7 nM and 5 nM respectively in assay buffer containing 50 mM MOPS pH 7.4 (Sigma, UK; cat: M9381), 0.4 M KF (BDH Chemicals, USA; cat: 103444T), 0.1% fatty acid free bovine serum albumin (Sigma, UK; cat: A6003) and 0.1% Tween 20 (v/v) (Sigma, UK; cat: P2287). 5 μl of this solution were added to the assay plate (Costar® 384 well black shallow well, Corning Life Sciences; cat: 3676). Amyloid beta peptides were serially diluted in assay buffer using a Greiner 96 well U bottom plate (Greiner BioOne, Germany; cat: 650201). 5 μl of each peptide dilution were transferred in duplicate to the assay plate using a MiniTrak™ (PerkinElmer, USA) liquid handling robot. […]

[6] = target: T3, Human Amyloid Beta 1-42 peptide (human); assay: SPR (BIAcore T-100), peptide over amine-coupled IgG, 1:1 Langmuir fit, mean
T3 construct: synthetic, unlabelled; also used here for the endogenous peptide of human plasma in the depletion assay; also called unlabelled human Amyloid beta 1-42; synthetic human Amyloid beta 1-42 peptide
Description: The chip surface was regenerated between cycles by a single 40 second injection of 10 mM Glycine pH 2.0 to remove ligand bound to the antibody.
Blank reference flow-cell data were subtracted from each IgG dataset and a zero-concentration buffer blank was double-reference subtracted from the main data set to reduce the impact of any buffer artefacts or non-specific binding effects. An appropriate binding model was then fitted simultaneously to the data from each analyte titration using the BIAevaluation software.
These parameters were derived from a 1:1 Langmuir fit to the data.

[7] = target: B6; assay: HTRF peptide competition against biotinylated human Amyloid beta 1-42
Description: as §1, §2

[8] = target: T4, Human Amyloid Beta 1-43 peptide (human); assay: as above
T4 construct: synthetic, unlabelled; also called Abeta 1-43
T4 sequence (peptide, as listed by the source): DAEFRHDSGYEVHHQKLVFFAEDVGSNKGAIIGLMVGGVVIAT
Description: as §1, §2

[9] = target: T5, Amyloid beta plaques on human Alzheimer's Disease brain sections (human, UniProt P05067 672-713); assay: in vitro immunohistochemistry, core plaques
T5 construct: mixture of Amyloid beta species in tissue; also called native Amyloid beta; human AD brain sections

Abet0007 IgG2 = target: B3; assay: HTRF peptide competition: dilution series of unlabelled peptide against 5 nM biotinylated human Amyloid beta 1-42 peptide for 0.3 nM Abet0007 IgG2 (section 1.6)
Description: as §1, §2

Abet0380-GL IgG1-TM = target: B5; assay: HTRF (TR-FRET) peptide competition: dilution series of peptide (10 uM to 0.17 nM) against 1.5 nM N-terminal biotin Abeta 1-42 for 0.5 nM Abet0380-GL IgG1-TM (Example 6)
Description: The assay was then incubated for a further 2 hrs at room temperature before reading on an Envision plate reader (PerkinElmer) using a standard homogeneous time resolved fluorescence (HTRF) read protocol.
The final assay volume was 20 ul and all reagents were prepared in an assay buffer comprising MOPS pH7.4 (50 mM), potassium fluoride (0.4M), tween 20 (0.1%) & fatty acid free BSA (0.1%). The assay was performed in low volume 384 well black assay plates (Costar 3676).

Abet0144-GL IgG1-TM = target: T6, Abet0144-GL IgG1-TM; assay: TR-FRET peptide competition: dilution series of unlabelled peptide against 1.5 nM biotinylated human Amyloid beta 1-42 peptide for 0.28 nM Abet0144-GL IgG1-TM (section 2.10)
T6 construct: human IgG1 with the triple mutation L234F/L235E/P331S (TM), human lambda light chain; also called Abet0144-GL (germlined) IgG1-TM
Description: This involved the use of Europium cryptate labelled anti-human Fc IgG (CisBio International, France; cat: 61 HFCKLB) and XL665 labelled streptavidin (CisBio International, France; cat: 611SAXLB) TR-FRET detection reagents.
Experiments were set up in Costar 384 well shallow bottom microtitre plates. […] 5 μl of assay buffer only was added to the negative binding assay control wells. […] 5 μl per well of each test peptide serial dilution was then transferred onto the 384 well assay plate. 5 μl of assay buffer only was added to the total and negative binding assay control wells. […] Finally, a combined solution was prepared containing Europium cryptate labelled anti-human Fc (2.4 nM) and XL665 labelled streptavidin (60 nM). 5 μl per well of this solution was added to all wells of the 384 well assay plate such that the final concentrations of Europium cryptate labelled anti-human Fc and XL665 labelled streptavidin were 0.6 nM and 15 nM, respectively.

B1: Abet0144 scFv (scFv, V domains shown, not shown: small tags and cut ends)
VH: EVQLLESGGGLVQPGGSLRLSCAASGFTFSVYTMWWVRQAPGKGLEWVSVIGSSGGTTVYADSVKGRFTISRDNSKNTLYLQMNSLRAEDTAVYYCAREWMDHSRPYYYYGMDVWGQGTLVTVSS
VL: QSVLTQPPSVSVSPGQTASITCSGHNLEDKFASWYQQKSGQSPVLVIYRDDKRPSGIPERFSASNSGHTATLTISGTQATDEADYYCQAQDSTTRVFGGGTKLTVL
notes: non-germlined clone; VH is that of Abet0144-GL (no residues changed on germlining); also called most improved clone
B1 was tested, and the IC50 [1] was 5.5 nM, the Kd [2] was 33.2 nM and the koff [2] was 0.00666 s⁻¹. It also gave a kon [2] of 201000 M⁻¹ s⁻¹.

B2: Abet0382 scFv (scFv, V domains shown, not shown: small tags and cut ends)
VH: EVQLLESGGGLVQPGGSLRLSCAASGFHFTNSIMWWVRQAPGKGLEWVSVIGSEAHRVTYADSVKGRFTISRDNSKNTLYLQMNSLRAEDTAVYYCAREWMDHSRPYYYYGMDVWGQGTLVTVSS
VL: SYELIQPPSVSVSPGQTASITCSGHNLEDKFASWYQQKPGQSPVLVIYRDDKRPSGIPERFSATNSGHTATLTISGTQATDEADYYCSSQDSVTRVFGGGTKLTVL
notes: purified scFv from E. coli
Work on B2 yielded a Kd [3] of 0.354 nM, a koff [3] of 7.97e-05 s⁻¹ and a kon [3] of 225000 M⁻¹ s⁻¹. For the same binder, the IC50 [4] was 0.66 nM.

For B3, the binding result [5] was “no binding (tested: about 2.5e-6 M (Log M about -5.6))”, the Kd [6] was 473 nM and the koff [6] was 0.074 s⁻¹. The kon [6] was 160000 M⁻¹ s⁻¹, the binding result [7] was “binds” and the binding result [8] was “binds”.

B4: Abet0007 scFv (scFv, V domains shown, not shown: small tags and cut ends)
VH: EVQLLESGGGLVQPGGSLRLSCAASGFTFSVYTMWWVRQAPGKGLEWVSVIGSSGGTTVYADSVKGRFTISRDNSKNTLYLQMNSLRAEDTAVYYCAREGQQLVRPYYYYGMDVWGQGTLVTVSS
VL: QSVLTQPPSVSVSPGQTASITCSGHNLEDKFASWYQQKSGQSPVLVIYRDDKRPSGIPERFSASNSGHTATLTISGTQATDEADYYCQAQDSTTRVFGGGTKLTVL
notes: purified scFv from E. coli (pCantab10.5); also called original lead; parent clone
B4 was tested, and the IC50 [1] was 159 nM.

In the case of B5, the “plaque staining score (0-4)” value [9] is reported as 3.

B6: binds (Abet0007 IgG2).

B7: Human Amyloid Beta 1-16 truncated peptide (peptide)
peptide: DAEFRHDSGYEVHHQK
notes: synthetic, unlabelled; also called Abeta 1-16
B7: no binding (tested: 1e-5 M (log M -5)) (Abet0380-GL IgG1-TM); no binding (tested: 1e-5 M (logM -5)) (Abet0144-GL IgG1-TM).
